Test system: peptide library, one residue held at a place counted from the Y acceptor
Test: relative phosphorylation of the sub-library (ratio to the mean residue at this position); higher = residue favoured
In short: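 In 384-well plates, purified recombinant kinases were incubated for 90 min with 50 μM ATP containing γ-32P-ATP and biotinylated Tyr-centred peptide libraries, each mixture fixing one residue at a single position between −5 and +5. After capture on streptavidin membranes and rinsing, peptides were quantified by phosphorimaging with ImageQuant. Per-position intensities were scaled to the sum of the 18 (Ser/Thr-free library: 16) randomized residues, then multiplied by that number.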

Sequence of EPHA7, construct: aa579-end, human (Q15375 579-998, looked up): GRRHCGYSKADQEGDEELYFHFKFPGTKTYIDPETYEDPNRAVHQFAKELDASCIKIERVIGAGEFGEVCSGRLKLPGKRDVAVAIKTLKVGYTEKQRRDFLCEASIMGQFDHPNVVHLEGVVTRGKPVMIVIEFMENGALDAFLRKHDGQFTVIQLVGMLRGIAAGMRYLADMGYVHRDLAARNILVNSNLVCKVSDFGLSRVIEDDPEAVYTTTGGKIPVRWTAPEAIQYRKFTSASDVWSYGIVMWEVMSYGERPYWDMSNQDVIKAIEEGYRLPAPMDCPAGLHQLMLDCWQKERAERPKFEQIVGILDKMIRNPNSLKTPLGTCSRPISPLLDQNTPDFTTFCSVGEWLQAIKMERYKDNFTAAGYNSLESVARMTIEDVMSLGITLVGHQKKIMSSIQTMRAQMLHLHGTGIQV
Sequence of EPHB1, construct: aa613-881, human (P54762 613-881, looked up): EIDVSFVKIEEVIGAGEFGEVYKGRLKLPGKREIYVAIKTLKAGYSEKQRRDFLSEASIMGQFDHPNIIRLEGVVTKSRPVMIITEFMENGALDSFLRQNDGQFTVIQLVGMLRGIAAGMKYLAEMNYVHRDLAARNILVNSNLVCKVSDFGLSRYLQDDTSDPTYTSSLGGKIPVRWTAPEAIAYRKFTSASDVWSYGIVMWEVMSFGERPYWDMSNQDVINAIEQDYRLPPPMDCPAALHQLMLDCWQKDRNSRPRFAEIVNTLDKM
Sequence of EPHA8, construct: aa571-924, human (P29322 571-924, looked up): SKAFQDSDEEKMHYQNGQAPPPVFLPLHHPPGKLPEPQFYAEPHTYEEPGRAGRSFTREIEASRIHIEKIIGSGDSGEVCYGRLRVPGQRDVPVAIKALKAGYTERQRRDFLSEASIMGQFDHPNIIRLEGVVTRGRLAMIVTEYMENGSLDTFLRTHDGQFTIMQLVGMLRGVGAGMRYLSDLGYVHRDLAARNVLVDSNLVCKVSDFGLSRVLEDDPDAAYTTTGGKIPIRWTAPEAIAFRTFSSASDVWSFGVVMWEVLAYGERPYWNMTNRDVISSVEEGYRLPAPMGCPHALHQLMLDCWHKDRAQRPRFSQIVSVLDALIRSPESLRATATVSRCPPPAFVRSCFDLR
Sequence of EPHB2, construct: aa611-893, human (P29323 611-893, looked up): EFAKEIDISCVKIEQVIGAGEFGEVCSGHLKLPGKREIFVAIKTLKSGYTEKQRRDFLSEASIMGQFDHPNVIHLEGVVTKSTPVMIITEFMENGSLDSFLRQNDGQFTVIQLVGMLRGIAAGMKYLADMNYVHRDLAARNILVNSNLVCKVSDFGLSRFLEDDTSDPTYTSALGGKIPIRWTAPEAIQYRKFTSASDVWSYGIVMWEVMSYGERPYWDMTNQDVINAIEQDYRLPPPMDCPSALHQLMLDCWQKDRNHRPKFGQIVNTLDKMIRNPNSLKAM

EPHA7, construct: aa579-end, human (from UniProt Q15375)
relative phosphorylation
Settings	at +1	at +2	at +3	at +4	at +5	at -1	at -2	at -3	at -4	at -5
A fixed	1.63	0.698	0.618	0.79	1.04	0.492	1.21	0.817	1.18	1.03
D fixed	0.804	1.37	0.44	0.936	0.981	2.01	1.07	1.12	1.17	1.05
E fixed	3	1.79	0.398	1.01	1.04	1.39	1.31	1.43	1.14	0.918
F fixed	0.661	1.31	1.7	1.08	1.13	0.92	0.747	1.48	1.07	1.03
G fixed	0.476	0.39	0.464	1.21	1.12	0.251	1.15	0.953	1.34	1.19
H fixed	0.495	0.916	0.855	1.29	0.953	0.625	0.779	1.06	0.852	0.96
I fixed	1.65	1.04	2.77	0.729	0.818	2.61	0.88	1.08	0.939	1.04
K fixed	0.271	0.522	0.329	0.822	0.809	0.3	0.926	0.591	0.875	0.993
L fixed	0.905	0.894	1.97	0.718	1.03	2.03	0.845	0.944	1.11	0.96
M fixed	1.41	0.935	1.15	1.03	0.988	0.872	0.663	0.913	0.883	0.921
N fixed	0.429	1.21	0.479	0.793	0.815	1.99	0.985	0.995	0.772	1.1
P fixed	0.204	0.609	0.93	1.4	1.64	0.346	1.51	1.15	1.33	1.11
Q fixed	1.08	0.742	0.692	0.778	0.782	0.439	1.09	0.706	1.04	0.94
R fixed	0.358	0.924	0.455	1.03	0.859	0.489	1.05	0.759	0.945	1.1
S fixed	0.725	0.769	0.537	0.853	0.994	0.457	1.26	0.877	0.784	0.834
T fixed	0.803	0.994	0.615	0.904	1.01	1.1	0.921	0.895	0.673	0.851
V fixed	2.03	1.04	2.05	0.733	0.797	1.1	0.936	0.876	0.822	0.831
W fixed	1.06	1.84	1.55	1.89	1.19	0.569	0.67	1.36	1.07	1.15
pThr fixed	1.8	2.11	0.552	0.851	0.651	2.07	0.877	0.772	0.877	0.834
pTyr fixed	1.98	6.7	0.866	1.14	0.865	1.94	0.896	1.02	1.08	1.12

EPHA8, construct: aa571-924, human (from UniProt P29322)
relative phosphorylation
Settings	at +1	at +2	at +3	at +4	at +5	at -1	at -2	at -3	at -4	at -5
A fixed	1.46	0.773	0.757	0.81	1.11	0.454	1.15	0.671	1.11	0.971
D fixed	0.978	1.49	0.359	0.911	1.19	1.98	1.35	1.49	1.48	1.17
E fixed	2.64	1.84	0.346	1.02	1.34	2.03	1.77	2.17	1.74	1.13
F fixed	0.777	1.38	1.62	1.22	0.934	0.855	0.708	1.42	1.07	1.02
G fixed	0.716	0.419	0.572	1.28	1.08	0.242	1.15	0.899	1.18	1.21
H fixed	0.624	0.838	0.819	1.11	1.1	0.672	0.853	1.03	0.87	1.06
I fixed	1.68	0.884	2.9	0.857	0.617	2.9	0.735	0.849	0.845	0.956
K fixed	0.266	0.506	0.32	0.772	0.957	0.249	0.685	0.528	0.715	0.87
L fixed	0.814	0.891	1.71	0.778	0.721	1.54	0.792	0.651	0.901	0.949
M fixed	1.37	0.786	1.23	0.944	0.855	0.698	0.559	0.833	0.843	1.02
N fixed	0.384	1.1	0.453	0.838	0.869	1.92	1.22	1.07	0.96	1.05
P fixed	0.293	0.783	1.11	1.39	1.72	0.391	1.4	0.927	0.974	1.08
Q fixed	1.07	0.823	0.559	0.932	0.897	0.402	1.11	0.813	1.12	0.977
R fixed	0.318	0.723	0.453	1.05	1.14	0.288	0.778	0.688	0.818	0.884
S fixed	0.849	0.886	0.485	0.822	0.943	0.422	1.14	0.958	0.838	0.834
T fixed	0.745	0.855	0.607	0.795	0.96	1.15	0.865	0.837	0.67	0.782
V fixed	1.7	0.914	2.1	0.81	0.644	1.11	0.947	0.728	0.779	0.849
W fixed	1.32	2.12	1.59	1.65	0.932	0.693	0.778	1.44	1.1	1.19
pThr fixed	1.94	2.25	0.437	1.02	1.1	3.17	1.26	1.04	0.986	0.968
pTyr fixed	4.68	7.04	1.16	1.22	1.39	2.63	1.63	1.34	1.37	1.27

EPHB1, construct: aa613-881, human (from UniProt P54762)
relative phosphorylation
Settings	at +1	at +2	at +3	at +4	at +5	at -1	at -2	at -3	at -4	at -5
A fixed	1.86	0.98	0.818	0.902	1.1	0.664	1.16	0.857	0.999	0.906
D fixed	0.907	1.01	0.511	1.08	1.13	2.22	1.09	1.22	1.23	1.15
E fixed	2.33	1.18	0.427	1.04	1.06	1.2	1.27	1.34	1.26	1.01
F fixed	0.676	1.14	1.37	1.06	1.13	1.19	0.677	1.31	1.19	1.07
G fixed	0.571	0.414	0.575	1.03	1.05	0.223	1.23	0.898	1.15	0.979
H fixed	0.566	0.769	1.39	1.18	0.938	0.762	0.888	1.05	0.872	0.934
I fixed	1.67	1.36	2.18	0.773	0.815	2.09	0.872	0.944	0.907	0.956
K fixed	0.212	0.585	0.29	0.744	0.784	0.264	0.946	0.631	0.931	1.05
L fixed	0.823	1.04	1.37	0.828	1.08	1.95	0.914	1.02	1.07	1.11
M fixed	1.48	0.935	1.19	1.07	1.01	0.95	0.689	0.874	0.872	0.926
N fixed	0.383	0.951	0.731	0.806	0.856	1.81	1.05	1.03	0.844	1.13
P fixed	0.195	0.858	0.899	1.29	1.49	0.436	1.33	1.2	1.21	0.947
Q fixed	1.22	0.982	0.849	1.07	0.94	0.423	1.13	0.835	1.19	1.13
R fixed	0.252	0.768	0.419	0.835	0.782	0.29	0.905	0.672	0.9	1.01
S fixed	0.934	0.981	0.691	0.94	0.972	0.519	1.3	0.923	0.722	0.841
T fixed	0.868	1.02	0.848	0.939	0.938	0.968	0.917	0.844	0.667	0.757
V fixed	1.83	1.56	1.95	0.911	0.876	1.24	0.912	0.928	0.854	0.949
W fixed	1.22	1.45	1.49	1.5	1.05	0.811	0.714	1.42	1.14	1.15
pThr fixed	1.9	1.95	0.439	1.03	0.655	1.58	0.851	0.856	0.945	1.02
pTyr fixed	1.56	3.38	0.718	1.1	0.883	1.69	0.936	1.13	1.12	1.25

EPHB2, construct: aa611-893, human (from UniProt P29323)
relative phosphorylation
Settings	at +1	at +2	at +3	at +4	at +5	at -1	at -2	at -3	at -4	at -5
A fixed	1.72	0.968	0.884	0.898	1.16	0.485	1.16	0.764	1.06	1.02
D fixed	1.17	1.15	0.473	1.11	1.01	2.48	1.32	1.45	1.35	1.24
E fixed	2.89	1.54	0.434	1.07	1.06	1.55	1.47	1.76	1.28	0.996
F fixed	0.59	1.27	1.36	0.922	0.937	0.938	0.635	1.33	1.11	0.972
G fixed	1.1	0.438	0.65	1.2	1.18	0.224	1.17	0.845	1.28	1.05
H fixed	0.443	0.626	1.29	1.1	0.998	0.494	0.825	0.807	0.872	0.921
I fixed	1.23	1.39	1.72	0.817	0.889	2.02	0.77	1	0.898	0.905
K fixed	0.166	0.428	0.273	0.699	0.691	0.207	0.791	0.522	0.784	0.995
L fixed	0.752	0.958	1.31	0.864	1.06	1.85	0.769	0.927	0.963	0.946
M fixed	1.33	0.838	1.19	1.09	0.934	0.759	0.674	0.919	0.868	0.942
N fixed	0.41	0.927	0.646	0.796	0.853	2.06	1.26	1.03	0.937	1.11
P fixed	0.171	0.732	1.27	1.16	1.46	0.343	1.33	0.945	1.09	1.19
Q fixed	1.2	0.882	0.762	0.976	0.868	0.502	1.17	0.933	1.25	1.12
R fixed	0.22	0.618	0.433	0.771	0.756	0.245	0.749	0.603	0.802	0.96
S fixed	0.992	0.953	0.769	1.03	1.11	0.47	1.43	0.968	0.898	0.88
T fixed	0.766	1.1	0.908	0.949	1.05	1.03	0.923	0.794	0.667	0.726
V fixed	1.77	1.78	1.92	1.02	0.934	1.48	0.878	0.928	0.851	0.957
W fixed	1.07	1.41	1.7	1.52	1.04	0.868	0.657	1.46	1.05	1.07
pThr fixed	1.64	1.98	0.439	0.858	0.64	1.77	1.05	0.962	0.894	0.877
pTyr fixed	1.75	4.02	0.872	1.28	1.1	2.15	1.15	1.12	1.04	1.12
